Measured values: the nanobody polyreactivity screen of Harvey et al. (2022)

Test: yeast display, Sf9 membrane polyspecificity reagent, FACS + sequencing; frameworks hold sequencing errors
How it was run: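 Nanobodies from a synthetic yeast display library (Saccharomyces cerevisiae BJ5465), induced 36–48 hours with galactose, were stained 1 hour at 4 °C with 10% biotinylated, detergent-solubilized Sf9 membrane reagent, enriched on streptavidin microbeads, then FACS-sorted. Anti-HA (expression) and streptavidin (reagent binding) fluorescence set low and high (top ~1%) gates. Polyreactivity labels come from the gate of origin. Genes were colony-PCR amplified, MiSeq 2 × 250 sequenced and filtered by CDR length.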

Row | Sequence | polyreactivity (PSR sort gate)
1 | QVQLVESGGGLVQAGGSLRLSCSASGRTFSSNAMGWYRKAPGKERELVAAITWSGGTTYYADSVKGRFTISRDNAKNTVYLQMNSQKPEDTAVYYCNAKRRGYTASVGYWGQGTQVTVSS | high polyreactivity
2 | QVQLVESGGGLVQAGGSLRLSCSASGRTNWLNAMGLYRQAPGKERELVATISSSSGSTTYADSVKGRFTISRDNAKNTVYLQMNSLKPEDTAVYYCNVDDPFYSGVVEFDYWGQGTQVTVSS | low polyreactivity
3 | QVQLVESGGGLVQAGGSLRLSCSASGSIFGFYAMGWYRQEPGKERELVAAIDSGDSTNYADSVKGRFTISRDNAKNTVYLQMNSLKPEDTAVYYCNARYTLFARYGYDYWGQGTQVTVSS | low polyreactivity
4 | QVQLVESGGGLVQAGGSLRLSCSASGSIFGSYAMGWYRQAPGKERELVARINTRGGSTYYADSVKGRFTISRDNAKYTVYIQMNSLKPADTAVYYCAKERRASVVRYDYWGQGTQVTVSS | low polyreactivity
5 | QVQLVESGGGLVQAGGSLRLSCSASGSIFPFNAMGWYRQAPGKERELVAAIRWSDGRTYYADSVKGRFTISRDNAKNTVYLQMNSLKPEDTAVYYCAAKSYWGQGTQVTVSS | high polyreactivity
6 | QVQLVESGGGLVQAGGSLRLSCSASGSIFRYNAMGWYRQAPGKERELVAGITSGGSTNYADSVKGRFTISRDNAKNTVYLQMNSLKPEDTAVYYCATGTRSYYRWWRLMNYWGQGTQVTVSS | high polyreactivity
7 | QVQLVESGGGLVQAGGSLRLSCSASGSIIYANAMGWYRPAPGKEREFVATITDSGAITYYADSVKGRFTISRDNAKNTVYLQMNSLKPEDTAVYYCNKDLVVYYVPTHDYDYWGQGTQVTVSS | low polyreactivity
8 | QVQLVESGGGLVQAGGSLRLSCSASGSISHYAMGWYRQAPGKERELVAAISRRGGSTYYADSVKGRFTISRDNAKNTVYLQKNSLKPEDTAVYYCNKATSYFTVRGYDYCGQGTQVTVSS | high polyreactivity
9 | QVQLVESGGGLVQAGGSLRLSCSASGSTFHRYAMGWYIQAPGKERELVARINGSGGSTYYADSVKGRFTISRDNAKNTVYLQMNSLKPEDSAVYYCAADGLYYTYGYDYWGQGTQVTVSS | low polyreactivity
10 | QVQLVESGGGLVQAGGSLRLSCSASGSTFRWNAMGWYRQAPGKERELVASITSGGSTNYADSVKGRFTMSRDNAKNTVYLQLNSLKPEDTAVSYCNADVRRYSNYVWLYDYWGQGTQVTVSS | low polyreactivity
11 | QVQLVESGGGLVQAGGSLRLSCSASGSTLAKYAMGWYRQAPGKERELVAAISWSGGRTYYADSVKGRFTISRDNAKNTVYLPMNSLKPEDTAVYYGAARALSSRTYHDDYWGQGTQVTVSS | high polyreactivity
12 | QVQLVESGGGLVQAGGSLRLSCSATGFIFYRYAMGWYRQAPGKERELVAAISSSGGSTYYADSVKGRFTISRDNAKTTVSLQMNSLKPEDTAVYYCNKRPQQYRPGYDYWGQGTQVTVSS | high polyreactivity
13 | QVQLVESGGGLVQAGGSLRLSCSAYGLILRTYGMGWYRQAPGKERELVAVISSGGSTYYADSVKGRFTISRDNEKNTVYLQMNSLKPEDTAVYYCAVRSSWYEGDYWGQGTQVTVSS | low polyreactivity
14 | QVQLVESGGGLVQAGGSLRLSCSDSGFIYRMYAMGWYRQAHGKETELVSAISSDASTNYADSVKGRFTISRDNAKNTVYLQMNSLKPEDTAVYYCAAAVKRGYAQSFISDGYGYWGQGTQVTVSS | low polyreactivity
15 | QVQLVESGGGLVQAGGSLRLSCSPSGSILYGNAMGWYRQAPGKERELVAAITSGGSTYYADSVKGRFTISRDNAKNTVYLQMNSLKPEDTAVYYCNTVWATKGDYWGHGTQVTVSS | high polyreactivity
16 | QVQLVESGGGLVQAGGSLRLSCSSSGRIFNDYAMGWYRKAPGKERELVATYADSEKGRFTISRYTAKKTVYLQMNSLKPEDTAVYYCAADFPSFPDFRPEYDYWGQGPQVTVSS | low polyreactivity
17 | QVQLVESGGGLVQAGGSLRLSCTASGFTFVYYAMGWYRQAPGKERELVASISRSGGSTYYADSVKGRFTISRDNAKNTVYLQMNSLKPEDTAVYYCNARYGRTALLDYWGQGTQVTVSS | high polyreactivity
18 | QVQLVESGGGLVQAGGSLRLSCTASGFTSRIYAMGWYRQAPVKERELVAAITRGVSTNYSDSVKGRFTISRDNAKNTVYLQMNSLKPEDTAVYYCAARTSGSYPYRTINEYWGQGTQVTVSS | high polyreactivity
19 | QVQLVESGGGLVQAGGSLRLSCVASGRTFATYTLGWYRPAPGKERELVAAITTSGGTYYADSVKGRFTISRDNAKNTVYLQMNSLKPEDTAVYYCANVSYYTSAPWYYYWGQGTQVTVSS | high polyreactivity
20 | QVQLVESGGGLVQAGGSLRLSCVPTDMGWYRQAPGKERELVATISLSDGNTYYADSVKGRFTISRDNAKNTVYLQMNSLKPEDTAVYYCNALHTWHQTYDYWGQCTQVTVSS | low polyreactivity
21 | QVQLVESGGGLVQAGGSLRLSFAASGFTFCIYAMGWYRQAPGKERELVAAINVSEGSTYYADSVKGRFTISRDNAKNTVYLQMNSLKPEDTAVYYCDAYLYDTIYTSYREYDYWGQGTQVTVSS | low polyreactivity
22 | QVQLVESGGGLVQAGGSLRLSFAASGFTFQWYGMGWSRQAPGKERELVAAINYSGGSTYYADSVKGSFTLSRDNAKNTVYLQMNSLKPEDTAVYYCAAEFYSWPWLRLAPWSMDYWGQGTQVTVSS | high polyreactivity

Row | Sequence | polyreactivity (PSR sort gate)
23 | QVQLVESGGGLVQAGGSLRLSFAASGFTFRLYAMGWYRQAPGKERELVAAITSSSGSTYYADSVKGRFTISRDNAKNTVYLQMNSLKPEDTAVYYCNADRGDSSRRYGYWGQGTQVTVSS | high polyreactivity
24 | QVQLVESGGGLVQAGGSLRLSFAASGFTFRNYAKGWYRQAPGKERELVATISRSGCSTYYADSVKGRFTISRDNAKNTVYLQMNSLKPEDTAVYYCAAKTILWKYYPYYYVTYDYWGQGTQVTVSS | high polyreactivity
25 | QVQLVESGGGLVQAGGSLRLSFAASGGIFWHYTRGWYRQAPGKERELVAAITRRGGSTYYADSVKGRFTISRDNAKNTVYLQMNSLKPEDTAVYYCAADFLPQSYNWYDYWGQGTQVTVSS | low polyreactivity
26 | QVQLVESGGGLVQAGGSLRLSFAASGLIFGYNAMGWYRQAPGTERELVAAISRRGTSTYYADSVKGRFTISRDNAKNTVYLQMNSLKPEDTAVYYCATYGVNPPGVEEYNYWGQGTQVTVSS | high polyreactivity
27 | QVQLVESGGGLVQAGGSLRLSFAASGLIFPSYTMGWYRQAPGNYGELVAGINSGGSTNYAESVMGRFTISRDIAKNTDYLQMNSQKAEHTAVYYCAKDNNYYWYVSPRDYWGQGTQVTVSS | low polyreactivity
28 | QVQLVESGGGLVQAGGSLRLSFAASGLTLYKNGMGWYRQAPGKETELVAVISRSGGRTYYADSVQGRFTISRDNAKNTVYLQMNSLKPEDTAVYYCAARQYGPRYTYYYWGQGTQVTVSS | high polyreactivity
29 | QVQLVESGGGLVQAGGSLRLSFAASGNIFTFNAMGLYRQATGKDRELDAAIRSGGSTNYADSVKGRFTISRDNAKNTVDLQMNSLKPEDTAVYYCAAKRYVQGYVYRYGYWGQGTQVTVSS | high polyreactivity
30 | QVQLVESGGGLVQAGGSLRLSFAASGQTFRWNAMGWYRQAPGKERELFAAISRGDRTNYADSVKGRFTISRDNAKNTVYLQMNSLNPEDTAVYYCAKTYQTNYYNGTWGVTSYGYWGQGTQVTVSS | high polyreactivity
31 | QVQLVESGGGLVQAGGSLRLSFAASGRIIRGYAMGRDRQAPGKERELVAAINGGDSTFADSVKGRFTISRDNAKNTVYLQMNSLKPEDTAVYYCAAAHYFLGPQGASFYYWGQGTQVTVSA | low polyreactivity
32 | QVQLVESGGGLVQAGGSLRLSFAASGRMFTGYAMGWYRQAHGKERELVADITSDGGTYYADSVKGRFTISRDNAKNSVYLQMNSLKPEDTAVYYCAAPRVVFGSSGEDDHWGQGTQVTVSS | low polyreactivity
33 | QVQLVESGGGLVQAGGSLRLSFAASGRTFRYYAMGWYRQAPGKERELVAAISGRGGSTYYADSVKARFTISRDNAKNSVYLQMNRQKPEDTAVYYCAASFYSIRYDYWGQGTQVTVSS | high polyreactivity
34 | QVQLVESGGGLVQAGGSLRLSFAASGRTFVLYTMGWYRQAPGKERELVAAISVGGALTYYADSVRGRFTISRDNAKNTVYLQMNSLKPEDSAVYYCAARRHSRVKYRDYWGQGTQVTVSS | high polyreactivity
35 | QVQLVESGGGLVQAGGSLRLSFAASGRTFYIYAMGLYRQDPGKEREMVAAITYGGGRTFYADSVKGRFTISRDNAKYTVYLQMNSLKPEDTAVYYCAKTDTYPRYGRGYDYWGQGTQVTVSS | high polyreactivity
36 | QVQLVESGGGLVQAGGSLRLSFAASGSIFLFNAMGWYRQAPGKERELVAAITSPTARTYYADSVKGRFTISRDNAKNTVYLQMNSLKPEDTAVYYCAARYRYAYGYGRGYSWGQGTQVTVSS | high polyreactivity
37 | QVQLVESGGGLVQAGGSLRLSFAASGSIFYRNAMGWYRQAPGKERELVASISASGGRTYYADSVKGRFTISRDNGKNTVYLQMNSVKPEDTAFYYCNKVSPVAYWYSWGINFDYWGQGTQVTVSS | high polyreactivity
38 | QVQLVESGGGLVQAGGSLRLSFAASGSNFGPNGMGWYRQAPGKERELVARIDRIGGGTYYADSVKGRFTISRDNAKNNVYLKMNSLKPEETAVYYCAKSGSAYWHSGWSVGFDYWGQGTQVTLSS | low polyreactivity
39 | QVQLVESGGGLVQAGGSLRLSFAASGSTFDWYVMGWYRQAPGKERELVAAINQGSGSTYYADSVKGRFTISRDNAKNTVYFQMNSLKPEDTAVYYCAADRYGAGYLYWPYDYWGQGTQVTVSS | low polyreactivity
40 | QVQLVESGGGLVQAGGSLRLSFAASGSTFGVNAMGWYRQAPGKERELVAVITRSGGSTYYADSVKGRFTISRDNAKNTVYLQMNSLKPEDTAVYYCGKSGVVDWGQGTQVTVSS | low polyreactivity
41 | QVQLVESGGGLVQAGGSLRLSFAASGSTFNVHAMGGYRQAPGKERELVAAITSSGGSTNYADSVKGRFTISRDTAKNSVYLQLNSLKPEDTAVYYCAADAIYFSRLNLGYDYWGQGTQVTVSS | low polyreactivity
42 | QVQLVESGGGLVQAGGSLRLSFAAYGSIFWGYAMGWYRQAPGKERELVAAISSSGGNTYYADSVKGRFTISRDNAKNTVYLQMNSLKPEDTAVYYCAATPEFYGGKITDVYSQYGYWGQGTQVTVSS | low polyreactivity
43 | QVQLVESGGGLVQAGGSLRLSGAASGFIFAAYAMGWYRQAPGKERELVASISNGGGSTYYADSVKGRYTISRDNAKNTVYLQMNSQNPEVSAVYYCNARQYYAVTRKYYVRLDYWGQGTQVTVES | high polyreactivity
